Assay [1] has as its target recombinant soluble empty (peptide free) HLA-DR1 (human). Kind of assay: fluorescence polarisation.
Assay [2] has the same target. The assay can be described thus: native gel or EMSA. On the technique in general: A gel shift assay detects complexes by their altered migration in electrophoresis.

“And” between values parts separate entries of the source, which are not always exact repeats. Identical values can stand only once.

Regarding FAM labeled P7 L→C HA peptide, in assay [1], the loss of bound peptide during the first 24 hr is 18% and 3%. Take “HA 306-318 P2,3 VK→SD peptide, fluorescein-labeled”: the t1/2 in assay [2] turned out to be 4.6 min. For “HA 306-318 P2,7 VL→SP peptide, fluorescein-labeled”, the t1/2 in assay [2] turned out to be 40.4 min. For the substance “HA 306-318 P2,7,10 VLA→SPG peptide, fluorescein-labeled”, the t1/2 in assay [2] turned out to be 9.9 min.

As for “HA 306-318 P2,10 VA→SG peptide, fluorescein-labeled”, the t1/2 in assay [2] was determined as 11.7 min. As to “HA 306-318 P3 K→D peptide, fluorescein-labeled”, the t1/2 in assay [2] amounted to 43.8 min. The same measure, in the same setting: the figure for “HA 306-318 P3,7 KL→DP peptide, fluorescein-labeled” is 15.9 min. On to “HA 306-318 P3,10 KA→DG peptide, fluorescein-labeled”, for which, in assay [2], the t1/2 was 7.92 min. The same measure, in the same setting: the figure for “HA 306-318 P7 L→P peptide, fluorescein-labeled” is 268 min; for “HA 306-318 P7,10 LA→PG peptide, fluorescein-labeled” it is 92.9 min; for “HA 306-318 P10 A→G peptide, fluorescein-labeled” it is 69 min.

For the origin of these results see article PMC2580030.
